Results reported in paper PMC3681697.
“And” between values parts separate entries of the source, which are not always exact repeats. Equal values may be shown once. Read-outs that look alike come from different tables or passages of the source. Blank lines part the entries; values can stand above or below the substance they belong to.

Legend:
desmin rod (human) = desmin rod (human) (UniProt P17661); assay: co-sedimentation
[1] = molecular target: full-length wild-type desmin (human) (UniProt P17661); assay: co-sedimentation
headless desmin (human) = headless desmin (human) (UniProt P17661); assay: co-sedimentation
[2] = molecular target: mutant desmin E245D (human) (UniProt P17661); assay: co-sedimentation
tailless desmin (human) = tailless desmin (human) (UniProt P17661); assay: co-sedimentation
[3] = molecular target: N-terminal His-tagged recombinant nebulin encompassing modules 160–164 (human) (UniProt P20929); assay: ELISA
[4] = molecular target: N-terminal His-tagged recombinant nebulin encompassing modules 160–164 (human) (UniProt P20929); assay: ELISA; remark: listed apart in the source

sedimentation value (percent in the pellet, equimolar mixture) (desmin rod (human)): 70%
nebulin bound at later time points (percent of total protein) [1]: 35%
sedimentation value (percent in the pellet, equimolar mixture) (headless desmin (human)): 57%
nebulin bound at later time points (percent of total protein) [2]: 20%
sedimentation value (percent in the pellet, equimolar mixture) (tailless desmin (human)): 29%
Substance: N-terminal His-tagged recombinant nebulin encompassing modules 160–164 (from UniProt P20929 1-8525) (domain or fragment)

Kd [3]: 18 nM and 14 nM
Substance: full-length wild-type desmin (from UniProt P17661 1-470) (natural protein)

Kd [3]: 8 nM
Kd [4]: 2 nM
Substance: mutant desmin E245D (from UniProt P17661 1-470) (natural protein)

Kd [3]: 19 nM
Substance: mutant desmin S46Y (from UniProt P17661 1-470) (natural protein)

Kd [3]: 11 nM
Substance: mutant desmin T453I (from UniProt P17661 1-470) (natural protein)
